Results on 31 molecules are retold here after patent publication US20260274985A1 (MYTHIC THERAPEUTICS, published 2026).

T1: Human TROP2 Protein, His Tag (human, UniProt P09758 27-274)
T1 construct: Bought protein; also called TACSTD2; not shown: His tag
T1 sequence (looked up): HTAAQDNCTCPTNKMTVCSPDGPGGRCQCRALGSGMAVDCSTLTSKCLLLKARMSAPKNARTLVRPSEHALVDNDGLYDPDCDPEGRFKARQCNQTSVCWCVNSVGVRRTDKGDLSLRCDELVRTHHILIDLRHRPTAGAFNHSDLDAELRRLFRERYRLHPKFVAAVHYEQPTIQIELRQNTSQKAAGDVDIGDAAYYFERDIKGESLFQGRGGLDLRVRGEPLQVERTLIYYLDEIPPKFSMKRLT

T2: TROP2 on TROP2-positive NCI-H1975 cells (human, UniProt P09758 27-323)
T2 sequence: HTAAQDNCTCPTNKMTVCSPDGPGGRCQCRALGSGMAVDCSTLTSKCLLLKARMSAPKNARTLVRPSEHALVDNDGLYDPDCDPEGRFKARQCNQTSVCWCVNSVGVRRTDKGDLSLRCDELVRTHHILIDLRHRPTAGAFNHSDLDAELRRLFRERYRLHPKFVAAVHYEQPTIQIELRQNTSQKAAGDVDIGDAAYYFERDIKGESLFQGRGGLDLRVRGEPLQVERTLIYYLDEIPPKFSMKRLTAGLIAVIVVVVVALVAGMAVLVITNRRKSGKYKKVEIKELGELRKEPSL

T3: Human TROP2 Protein, His Tag (Acro Biosystems) (human, UniProt P09758 27-274)
T3 construct: not shown: His tag
T3 sequence (looked up): T1 sequence (looked up)

T4: Human TROP2 Protein, His Tag (Acro Biosystems) (human, UniProt P09758 27-274)
T4 construct: not shown: His tag
T4 sequence (looked up): T1 sequence (looked up)

T5: Human TROP2 Protein, His Tag (Acro Biosystems) (human, UniProt P09758 27-274)
T5 construct: Bought protein; also called TACSTD2; not shown: His tag
T5 sequence: T1 sequence (looked up)

B1: MYT11668 (antibody, V domains shown)
VH: QVQLVQSGAEVKKPGASVKVSCKASGYTFTTAGMQWVRQAPGQGLEWMGWINTHSGVPKYAEDFKGRVTISADTSTSTAYLQLSSLKSEDTAVYYCARSGFHSSYWYFDVWGQGTLVTVSS
VL: DIQMTQSPSSLSASVGDRVTITCKASQDVSTAVAWYQQKPGKAPKLLIYSASYRYTGVPSRFSGSGSGTDFTLTISSLQPEDFAVYYCQQHYITPLTFGQGTKLEIK
notes: IgG from supernatant; also called datopotamab variant H3 06
B2: MYT11666 (antibody, V domains shown)
VH: B1 VH with G100H, H102G
VL: B1 VL
notes: IgG from supernatant; His at HCV position 100; also called datopotamab variant H3 04
B3: MYT11663 (antibody, V domains shown)
VH: B1 VH with A97H, H102G
VL: B1 VL
notes: IgG from supernatant; His at HCV position 97; also called datopotamab variant H3 01
B4: MYT11665 (antibody, V domains shown)
VH: B1 VH with S99H, H102G
VL: B1 VL
notes: IgG from supernatant; His at HCV position 99; also called datopotamab variant H3 03
B5: MYT11672 (antibody, V domains shown)
VH: B1 VH with H102G, W106H
VL: B1 VL
notes: IgG from supernatant; also called datopotamab variant H3 10
B6: MYT11643 (antibody, V domains shown)
VH: B1 VH with G33H, H102G
VL: B1 VL
notes: IgG from supernatant; His at HCV position 33; also called datopotamab variant H1 08
B7: MYT11669 (antibody, V domains shown)
VH: B1 VH with H102G, S103H
VL: B1 VL
notes: IgG from supernatant; also called datopotamab variant H3 07
B8: MYT12375 (antibody, human IgG1, V domains shown)
VH: QVQLQQSGSELKKPGASVKVSCKASGYTFTNYGMNWVKQAPGQGLKWMGWINTYTGEPTYTDDFKGRFAFSLDTSVSTAYLQISSLKADDTAVYFCARGGFGSSYWYFDVWGQGSLVTVSS
VL: B1 VL with M4L, T20S, T31I, A51H, Y53H, S60D, I93H, Q100A, L104V
B9: MYT11682 (antibody, human IgG1, V domains shown)
VH: B1 VH with H102G
VL: B1 VL with V29H
B10: MYT11766 (antibody, human IgG1, V domains shown)
VH: QVQLQESGPGLVKPSETLSLTCTVSGGSISSYGVHWIRQPPGKGLEWIGVIWTSGVTDYNSALMGRVTISVDTSKNQFSLKLSSVTAADTAVYYCARDGDYDRYTMDYWGQGTLVTVSS
VL: DIVMTQSPDSLAVSLGERATINCRASKSVSTSGYSYMHWYQQKPGQPPKLLIYLASNLESGVPDRFSGSGSGTDFTLTISSLQAEDVAVYYCHHSRELPYTFGQGTKLEIK
B11: MYT11770 (antibody, human IgG1, V domains shown)
VH: B10 VH
VL: B10 VL with H93Q, E97H
B12: MYT12440 (antibody, human IgG1, V domains shown)
VH: B10 VH
VL: B10 VL with E59H
B13: MYT12377 (antibody, V domains shown)
VH: B8 VH
VL: B1 VL with M4L, T20S, T31I, Y53H, S60D, Q89H, I93H, Q100A, L104V
notes: sacituzumab VL 53, 89, 93 -> H
B14: MYT12353 (antibody, V domains shown)
VH: B8 VH
VL: B1 VL with M4L, T20S, T31I, S52H, Y53H, S60D, Q100A, L104V
notes: sacituzumab VL 52, 53 -> H
B15: MYT12374 (antibody, V domains shown)
VH: B8 VH
VL: B1 VL with M4L, T20S, T31I, A51H, Y53H, S60D, Q89H, Q100A, L104V
notes: sacituzumab VL 51, 53, 89 -> H
B16: MYT12364 (antibody, V domains shown)
VH: B8 VH
VL: B1 VL with M4L, T20S, T31I, S60D, Q89H, I93H, Q100A, L104V
notes: sacituzumab VL 89, 93 -> H
B17: MYT12357 (antibody, V domains shown)
VH: B8 VH
VL: B1 VL with M4L, T20S, T31I, S52H, S60D, I93H, Q100A, L104V
notes: sacituzumab VL 52, 93 -> H
B18: MYT12376 (antibody, V domains shown)
VH: B8 VH
VL: B1 VL with M4L, T20S, T31I, A51H, S60D, Q89H, I93H, Q100A, L104V
notes: sacituzumab VL 51, 89, 93 -> H
B19: MYT12352 (antibody, V domains shown)
VH: B8 VH
VL: B1 VL with M4L, T20S, T31I, A51H, S60D, I93H, Q100A, L104V
notes: sacituzumab VL 51, 93 -> H
B20: MYT12351 (antibody, V domains shown)
VH: B8 VH
VL: B1 VL with M4L, T20S, T31I, A51H, S60D, Y92H, Q100A, L104V
notes: sacituzumab VL 51, 92 -> H
B21: MYT13438 (antibody, V domains shown)
VH: B10 VH with I51H
VL: B10 VL with E59H, H93Q, H94A
notes: Full-length IgG from Expi293 supernatant; also called hu7E6SVG heavy chain and light chain pairing variant
B22: MYT13439 (antibody, V domains shown)
VH: B10 VH with V56H
VL: B10 VL with E59H, H93Q, H94A
notes: as for B21
B23: MYT13444 (antibody, V domains shown)
VH: B10 VH with V56H
VL: B10 VL with E59H, H93Q, T101H
notes: as for B21
B24: MYT13442 (antibody, V domains shown)
VH: B10 VH with M106H
VL: B10 VL with E59H, H93Q, H94A
notes: as for B21
B25: MYT12417 (hu7E6SVG variant, HCV substitutions at 34, 103) (antibody, V domains shown)
VH: B10 VH with V34H, R103H
VL: B10 VL with H93Q
B26: MYT12412 (hu7E6SVG variant, HCV substitutions at 33, 103) (antibody, V domains shown)
VH: B10 VH with G33H, R103H
VL: B10 VL with H93Q
B27: MYT12420 (hu7E6SVG variant, HCV substitutions at 51, 102) (antibody, V domains shown)
VH: B10 VH with I51H, D102H
VL: B10 VL with H93Q
B28: MYT12416 (hu7E6SVG variant, HCV substitutions at 34, 102) (antibody, V domains shown)
VH: B10 VH with V34H, D102H
VL: B10 VL with H93Q
B29: MYT12425 (hu7E6SVG variant, HCV substitutions at 56, 106) (antibody, V domains shown)
VH: B10 VH with V56H, M106H
VL: B10 VL with H93Q
B30: MYT12424 (hu7E6SVG variant, HCV substitutions at 56, 103) (antibody, V domains shown)
VH: B10 VH with V56H, R103H
VL: B10 VL with H93Q
B31: MYT12421 (hu7E6SVG variant, HCV substitutions at 51, 103) (antibody, V domains shown)
VH: B10 VH with I51H, R103H
VL: B10 VL with H93Q

Numbering of substitutions follows the chain as printed.

The target of the first assay is T1, Human TROP2 Protein, His Tag. Put plainly: BLI (Octet).
On to B1, for which the binding result is “no binding (tested: 50 nM)”.
The same measure, in the same setting: next, B2: “no binding (tested: 50 nM)”; B3: “no binding (tested: 50 nM)”; B4: “no binding (tested: 50 nM)”.
As for B5, the binding result was “no binding (tested: 50 nM)”.
Same read-out and setting: next, B6: “no binding (tested: 50 nM)”; B7: “no binding (tested: 50 nM)”.

The next assay concerns the target T2, TROP2 on TROP2-positive NCI-H1975 cells. Put plainly: cell-based or functional assay.
As for B8, the “cytotoxicity on TROP2-positive NCI-H1975 cells (antibody complexed to secondary antibody-MMAF, cell titer glow assay)” value (“cytotoxicity” below) was ~27 % greater cytotoxicity compared to WT datopotamab.
Take B9: the “cytotoxicity” value is ~20 % greater cytotoxicity compared to WT datopotamab.
As to B10, the “cytotoxicity” value was ~30 % greater cytotoxicity compared to WT datopotamab.
Regarding B11, the “cytotoxicity” value is ~30 % greater cytotoxicity compared to WT datopotamab.
For the molecule B12, the “cytotoxicity” value is ~30 % greater cytotoxicity compared to WT datopotamab.

The next assay deals with T3, Human TROP2 Protein, His Tag (Acro …). The assay can be described thus: BLI (Octet) [2/2].
As to B13, the binding result was “binds”.
Still for that read-out and setting: under B14 stands “binds”.
Turning to B15, the binding result was “binds”.
Consider B16, for which the binding result was “binds”.
The same measure, in the same setting: next, B17: “binds”; B18: “binds”.
Turning to B19, the binding result is listed as “binds”.
Same read-out and setting: next, B20: “binds”.

The target in a further assay is T4, Human TROP2 Protein, His Tag (Acro …). Put plainly: BLI (Octet) [2/2].
Turning to B21, the binding result is on record as “no binding (tested: 50 nM)”.
For B22, the binding result is recorded as “no binding (tested: 50 nM)”.
In the case of B23, the binding result is “no binding (tested: 50 nM)”.
Still for that read-out and setting: next, B24: “no binding (tested: 50 nM)”.

Another assay addresses T5, Human TROP2 Protein, His Tag (Acro …). Put plainly: BLI (Octet).
In the case of B25, the binding result is given as “binds”.
Turning to B26, the binding result was “binds”.
The same measure, in the same setting: under B27 stands “binds”; under B28, “binds”; under B29, “binds”.
Same read-out and setting: under B30 stands “binds”; under B31, “binds”.
